Test results published in the supplement of paper PMC6757056.
± gives the standard deviation of the averaged measurements.

B1: library; a variant is named by its letters at N, in order (parent)
chain: GCUGUCACCGGUGCUUGGUACGUUAUAUUCAGCCGGUCUGAUGAGUCUNNNNNNAGACGAAACAGC

Assays:
(6R,S)-folinic acid [1] = variants of: B1; experiment: normalized RNA/DNA level without ligand (relative to sTRSVctl = 100) (log10 (% of sTRSVctl)); HEK293T overexpressing SLC46A1; higher = less ribozyme self-cleavage, higher mRNA level; details: without (6R,S)-folinic acid; ligand present: no
Method in brief: (§1)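 Library plasmids carrying ribozyme switches linked to mCherry, or to eGFP in some ligand experiments, were transfected into HEK293T at 4 µg per 6-well well, with any ligand added 1 h earlier. Seventy-two hours on, total RNA was extracted with EDTA and reverse-transcribed, amplified, barcoded and sequenced. RNA level was RNA over DNA reads normalized to a spiked-in non-cleaving sequence or to the top sequences, then scaled and log-transformed. The top set was 25 sequences, the transform was ×100 and log10, and sequences needed ≥100 DNA reads.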

(6R,S)-folinic acid [2] = variants of: B1; experiment: normalized RNA/DNA level with ligand (relative to sTRSVctl = 100) (log10 (% of sTRSVctl)); HEK293T overexpressing SLC46A1; ligand concentration (+) RNA-Seq: 6 mM; higher = less ribozyme self-cleavage, higher mRNA level; details: with (6R,S)-folinic acid; ligand present: yes
Method in brief: as §1

Row | Variant | normalized RNA/DNA level without ligand (log10) ((6R,S)-folinic acid [1]) | normalized RNA/DNA level with ligand (log10) ((6R,S)-folinic acid [2])
1 | CUUCGC | 2.067 ± 0.018 | 2.072 ± 0.018
2 | UUUCGC | 2.01 ± 0.016 | 2 ± 0.011
3 | AUUCGG | 1.952 ± 0.017 | 2.04 ± 0.026
4 | CUUCGG | 2.063 ± 0.0068 | 2.036 ± 0.0089
5 | UUUCGG | 1.9984 ± 0.00042 | 1.99 ± 0.022
6 | AUUCGU | 1.99 ± 0.0072 | 1.97 ± 0.057
7 | CUUCGU | 2.053 ± 0.0097 | 2.04 ± 0.048
8 | GUUCGU | 1.998 ± 0.019 | 2.01 ± 0.035
9 | UUUCGU | 1.98 ± 0.017 | 2.01 ± 0.012
10 | AUUCUA | 2.005 ± 0.0047 | 1.999 ± 0.01
11 | CUUCUA | 2.0515 ± 0.00054 | 2.083 ± 0.015
12 | UUUCUA | 2.019 ± 0.011 | 2.042 ± 0.0037
13 | AUUCUC | 2.072 ± 0.012 | 2.04 ± 0.042
14 | CUUCUC | 2.05 ± 0.0097 | 2.02 ± 0.056
15 | GUUCUC | 2.112 ± 0.0075 | 2.076 ± 0.02
16 | UUUCUC | 2.118 ± 0.0058 | 2.062 ± 0.014
17 | AUUCUG | 1.94 ± 0.011 | 1.99 ± 0.043
18 | CUUCUG | 2.06 ± 0.021 | 2.026 ± 0.0091
19 | GUUCUG | 1.981 ± 0.015 | 1.987 ± 0.014
20 | AUUCUU | 2.02 ± 0.027 | 2.04 ± 0.023
21 | CUUCUU | 2.016 ± 0.0066 | 1.97 ± 0.025

Row | Variant | normalized RNA/DNA level without ligand (log10) ((6R,S)-folinic acid [1]) | normalized RNA/DNA level with ligand (log10) ((6R,S)-folinic acid [2])
22 | GUUCUU | 2.0414 ± 0.0017 | 2.04 ± 0.028
23 | UUUCUU | 2.043 ± 0.0064 | 2.02 ± 0.021
24 | CUUGAA | 1.958 ± 0.01 | 1.99 ± 0.049
25 | AUUGAC | 1.99 ± 0.016 | 1.97 ± 0.046
26 | CUUGAC | 1.998 ± 0.0057 | 2.033 ± 0.0045
27 | UUUGAC | 2.012 ± 0.0044 | 2.011 ± 0.018
28 | AUUGAU | 1.93 ± 0.0058 | 2.01 ± 0.036
29 | GUUGAU | 1.97 ± 0.021 | 2.003 ± 0.019
30 | AUUGCA | 1.976 ± 0.0096 | 1.98 ± 0.05
31 | CUUGCA | 2.019 ± 0.0087 | 2.03 ± 0.043
32 | GUUGCA | 2 ± 0.011 | 2.01 ± 0.038
33 | AUUGCC | 2.02 ± 0.029 | 2.02 ± 0.055
34 | CUUGCC | 2.03 ± 0.0023 | 2 ± 0.064
35 | GUUGCC | 2.0274 ± 0.0015 | 1.998 ± 0.018
36 | UUUGCC | 2.001 ± 0.004 | 2.04 ± 0.037
37 | CUUGCG | 2.03 ± 0.017 | 2.01 ± 0.029
38 | AUUGCU | 2.015 ± 0.0026 | 1.979 ± 0.012
39 | CUUGCU | 2.051 ± 0.0067 | 2.04 ± 0.012
40 | AUUGGC | 2.011 ± 0.012 | 2.05 ± 0.012
41 | GUUGGC | 1.914 ± 0.019 | 2.02 ± 0.036
42 | UUUGGC | 1.995 ± 0.0079 | 2.04 ± 0.027

Row | Variant | normalized RNA/DNA level without ligand (log10) ((6R,S)-folinic acid [1]) | normalized RNA/DNA level with ligand (log10) ((6R,S)-folinic acid [2])
43 | AUUGGG | 1.7701 ± 0.00019 | 1.99 ± 0.033
44 | GUUGGG | 1.912 ± 0.013 | 2.042 ± 0.017
45 | AUUGGU | 1.884 ± 0.011 | 1.99 ± 0.056
46 | CUUGGU | 2.01 ± 0.021 | 2.01 ± 0.029
47 | UUUGGU | 1.953 ± 0.013 | 1.98 ± 0.071
48 | AUUGUA | 1.941 ± 0.016 | 2 ± 0.02
49 | CUUGUA | 2.027 ± 0.018 | 2.036 ± 0.013
50 | UUUGUA | 1.959 ± 0.0085 | 2.007 ± 0.014
51 | AUUGUC | 2.06 ± 0.038 | 2.05 ± 0.066
52 | CUUGUC | 2.091 ± 0.018 | 2.06 ± 0.027
53 | GUUGUC | 2.02 ± 0.025 | 2.021 ± 0.019
54 | UUUGUC | 2.069 ± 0.018 | 2.034 ± 0.02
55 | UUUGUG | 1.73 ± 0.051 | 1.95 ± 0.046
56 | AUUGUU | 1.988 ± 0.0071 | 1.998 ± 0.008
57 | CUUGUU | 2.02 ± 0.03 | 1.995 ± 0.018
58 | GUUGUU | 2.03 ± 0.021 | 2.035 ± 0.018
59 | UUUGUU | 1.944 ± 0.0033 | 1.99 ± 0.032
60 | AUUUAA | 1.953 ± 0.013 | 1.99 ± 0.059
61 | CUUUAA | 1.978 ± 0.0046 | 2 ± 0.026
62 | GUUUAA | 1.989 ± 0.0071 | 1.99 ± 0.025
